T1: Fe65 (UniProt O00213 1-710, limits assumed)
T1 construct: also called Fe65 adaptor protein; in vitro translated Fe65
T1 sequence (looked up): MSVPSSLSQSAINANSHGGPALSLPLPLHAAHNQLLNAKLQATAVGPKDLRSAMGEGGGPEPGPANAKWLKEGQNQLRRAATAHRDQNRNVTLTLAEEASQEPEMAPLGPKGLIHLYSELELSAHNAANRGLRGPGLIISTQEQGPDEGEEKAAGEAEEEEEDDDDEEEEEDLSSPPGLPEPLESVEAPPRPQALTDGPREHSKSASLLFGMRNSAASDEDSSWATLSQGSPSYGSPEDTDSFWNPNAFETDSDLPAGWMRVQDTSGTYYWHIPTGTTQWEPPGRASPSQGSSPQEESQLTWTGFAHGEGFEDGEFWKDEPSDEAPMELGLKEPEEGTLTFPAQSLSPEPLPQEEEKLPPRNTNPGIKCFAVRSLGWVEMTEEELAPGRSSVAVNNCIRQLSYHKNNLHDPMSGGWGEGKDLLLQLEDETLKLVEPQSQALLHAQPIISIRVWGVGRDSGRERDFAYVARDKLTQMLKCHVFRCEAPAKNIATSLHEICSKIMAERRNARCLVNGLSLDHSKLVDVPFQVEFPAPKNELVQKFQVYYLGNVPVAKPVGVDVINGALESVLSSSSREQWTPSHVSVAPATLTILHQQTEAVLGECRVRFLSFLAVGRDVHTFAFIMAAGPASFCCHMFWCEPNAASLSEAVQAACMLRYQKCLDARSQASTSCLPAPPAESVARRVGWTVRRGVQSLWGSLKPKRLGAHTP


Assays:
Fe65 = target: T1, Fe65; assay: GST pull down of in vitro translated Fe65
Aβ release = conditions: exogenous RAP, cells overexpressing APP751; cited from earlier work
APP processing = assay: Overexpression of Fe65 in APP751-transfected CHO cells, APPs and Aβ; format: cell-based; conditions: preliminary studies
Text: In the second set of experiments, Inventors determine whether overexpression of Fe65 impairs APP and LRP processing by acting as a dominant or competitive negative mutant. Inventors briefly mentioned the preliminary results above with APPs and Aβ when Fe65 was overexpressed in APP75 1-transfected CHO cells. These studies are repeated for reliable quantitation and other aspects of APP trafficking are examined, as performed in the earlier aims. Inventors also assess the binding and uptake of LRP ligands. To ascertain that these outcomes are due to inhibition by Fe65, Inventors overexpress Fe65 mutants that cannot bind either APP or LRP, i.e., ΔPID2 and ΔPID 1, respectively. If these mutant constructs mimic the results from full length Fe65 even though it cannot bind it's known substrate, then it supports the idea that Fe65 or Fe65L in excess behaves as an inhibitor. […] The premise is that an overabundance of Fe65 result in the failure to link up limiting amounts of LRP with APP. Thus, co-expression of Fe65 with LRP should greatly diminish the effects of Fe65 expressed by itself In the third set of experiments, Inventors test the concept that other APP and LRP interacting proteins with only single binding sites, such as mDab, X11/Mint-1 and JIP-1, compete for binding with Fe65 or Fe65L, and by displacing Fe65, produce a partial loss of function with respect to APP processing. […]

Molecule	reduction of binding against wild type LRP (Fe65)	further results
GST fusion protein of the LRP cytoplasmic tail with a single alanine substitution at L of the YATL motif (other, not shown: a dimerising Fc or GST; small tags and cut ends, N-terminal GST fusion, not carried in the letters, Position 4510 is derived from the motif's printed limits (4504 to 4510)) KRRVQGAKGFQHQRMTNGAMNVEIGNPTYKMYEGGEPDDVGGLLDADFALDPDKPTNFTNPVYATAYMGGHGSRHSLASTDEKRELLGRGPEDEIGDPLA	> 50%	
GST fusion protein of the LRP cytoplasmic tail with a single alanine substitution at N of the second NPXY motif (other, not shown: a dimerising Fc or GST; small tags and cut ends, N-terminal GST fusion, not carried in the letters, Position 4504 is derived from the motif's printed limits (4504 to 4510)) KRRVQGAKGFQHQRMTNGAMNVEIGNPTYKMYEGGEPDDVGGLLDADFALDPDKPTNFTAPVYATLYMGGHGSRHSLASTDEKRELLGRGPEDEIGDPLA	> 50%	
GST fusion protein of the LRP cytoplasmic tail with a single alanine substitution at Y of the second NPXY motif (other, not shown: a dimerising Fc or GST; small tags and cut ends, N-terminal GST fusion, not carried in the letters) KRRVQGAKGFQHQRMTNGAMNVEIGNPTYKMYEGGEPDDVGGLLDADFALDPDKPTNFTNPVAATLYMGGHGSRHSLASTDEKRELLGRGPEDEIGDPLA	> 50%	
RAP: 39 kDa receptor associated protein, an LRP chaperone molecule that blocks binding of all known LRP ligands (protein, UniProt P30533 35-357, looked up) Alpha-2-macroglobulin …: YSREKNQPKPSPKRESGEEFRMEKLNQLWEKAQRLHLPPVRLAELHADLKIQERDELAWKKLKLDGLDEDGEKEARLIRNLNVILAKYGLDGKKDARQVTSNSLSGTQEDGLDDPRLEKLWHKAKTSGKFSGEELDKLWREFLHHKEKVHEYNVLLETLSRTEEIHENVISPSDLSDIKGSVLHSRHTELKEKLRSINQGLDRLRRVSHQGYSTEAEFEEPRVIDLWDLAQSANLTDKELEAFREELKHFEAKIEKHNHYQKQLEIAHEKLRHAESVGDGERVSRSREKHALLEGRTKELGYTVKKHLQDLSGRISRARHNEL		Aβ release (Aβ release): dramatically reduced
Fe65: cytosolic adaptor protein with separate binding domains (PID1, PID2) for LRP and APP, overexpressed in cells (protein) MSVPSSLSQSAINANSHGGPALSLPLPLHAAHNQLLNAKLQATAVGPKDLRSAMGEGGGPEPGPANAKWLKEGQNQLRRAATAHRDQNRNVTLTLAEEASQEPEMAPLGPKGLIHLYSELELSAHNAANRGLRGPGLIISTQEQGPDEGEEKAAGEAEEEEEDDDDEEEEEDLSSPPGLPEPLESVEAPPRPQALTDGPREHSKSASLLFGMRNSAASDEDSSWATLSQGSPSYGSPEDTDSFWNPNAFETDSDLPAGWMRVQDTSGTYYWHIPTGTTQWEPPGRASPSQGSSPQEESQLTWTGFAHGEGFEDGEFWKDEPSDEAPMELGLKEPEEGTLTFPAQSLSPEPLPQEEEKLPPRNTNPGIKCFAVRSLGWVEMTEEELAPGRSSVAVNNCIRQLSYHKNNLHDPMSGGWGEGKDLLLQLEDETLKLVEPQSQALLHAQPIISIRVWGVGRDSGRERDFAYVARDKLTQMLKCHVFRCEAPAKNIATSLHEICSKIMAERRNARCLVNGLSLDHSKLVDVPFQVEFPAPKNELVQKFQVYYLGNVPVAKPVGVDVINGALESVLSSSSREQWTPSHVSVAPATLTILHQQTEAVLGECRVRFLSFLAVGRDVHTFAFIMAAGPASFCCHMFWCEPNAASLSEAVQAACMLRYQKCLDARSQASTSCLPAPPAESVARRVGWTVRRGVQSLWGSLKPKRLGAHTP		APPs secretion (APP processing): augmented; Aβ release (APP processing): reduction
